This passage reports plasminogenolytic activity (PAU/mg) (PAU/mg (single chain)) and ratio of the rates of Lys- to Glu-plasminogen activation in the presence of fibrin stimulator (Lys/Glu) (Lys/Glu (ratio of rates), single chain) results from patent US5595736.

The chains are these.
B1: mt-PA9 (enzyme)
chain: SYQDTRATCYEDQGISYRGTWSTAESGAECTNWNSSALAQKPYSGRRPDAIRLGLGNHNYCRNPDGDAKPWCHVLKNRRLTWEYCDVPSCSTCGLRQYSQPQFRIKGGLFADIASHPWQAAIFAKHRRSPGERFLCGGILISSCWILSAAHCFQERFPPHHLTVILGRTYRVVPGEEEQKFEVEKYIVHKEFDDDTYDNDIALLQLKSDSSRCAQESSVVRTVCLPPADLQLPDWTECELSGYGKHEALSPFYSERLKEAHVRLYPSSRCTSQHLLNRTVTDNMLCAGDTRSGGPQANLHDACQGDSGGPLVCLNDGRMTLVGIISWGLGCGQKDVPGVYTKVTNYLDWIRDNMRP
modifications: diglycosylated: obligatory glycosylation site located in the first exon of Kringle 1, and the site in the Serine Protease domain
B2: mt-PA6-E (enzyme)
chain: SYQGNSDCYFGQGSAYRGTHSLTESGASCLPWNSMILIGKVYTAQNGSAQALGLGKHNYCRNPDGDAKPWCHVLKNRRLTWEYCDVPSCSTCGLRQYSQPQFRIKGGLFADIASHPWQAAIFAKHRRSPGERFLCGGILISSCWILSAAHCFQERFPPHHLTVILGRTYRVVPGEEEQKFEVEKYIVHKEFDDDTYDNDIALLQLKSDSSRCAQESSVVRTVCLPPADLQLPDWTECELSGYGKHEALSPFYSERLKEAHVRLYPSSRCTSQHLLNRTVTDNMLCAGDTRSGGPQANLHDACQGDSGGPLVCLNDGRMTLVGIISWGLGCGQKDVPGVYTKVTNYLDWIRDNMRP
modifications: diglycosylated: alternate glycosylation consensus sequence at the amino acids surrounding position 48 (equivalent to amino acid 219 of t-PA) in Kringle 2 (claim 2: monoglycosylated at amino acid residue number 47), and the glycosylation consensus sequence within the Serine Protease domain
B3: Variant mt-PA6 (mt-PA6-V) (enzyme)
chain: B2 chain with Q12N, G47P
modifications: glycosylated at amino acids 276 and 12
B4: Primary mt-PA6 (mt-PA6-P) (enzyme)
chain: B2 chain with Q12N, G47P
modifications: glycosylated at amino acid 276 but not at amino acid 12
B5: mt-PA6-D (enzyme)
chain: SYQGNSDCYFGQGSAYRGTHSLTESGASCLPWNGSMILIGKVYTAQNPSAQALGLGKHNYCRNPDGDAKPWCHVLKNRRLTWEYCDVPSCSTCGLRQYSQPQFRIKGGLFADIASHPWQAAIFAKHRRSPGERFLCGGILISSCWILSAAHCFQERFPPHHLTVILGRTYRVVPGEEEQKFEVEKYIVHKEFDDDTYDNDIALLQLKSDSSRCAQESSVVRTVCLPPADLQLPDWTECELSGYGKHEALSPFYSERLKEAHVRLYPSSRCTSQHLLNRTVTDNMLCAGDTRSGGPQANLHDACQGDSGGPLVCLNDGRMTLVGIISWGLGCGQKDVPGVYTKVTNYLDWIRDNMRP
modifications: diglycosylated: alternate glycosylation consensus sequence at the amino acids surrounding position 33 (equivalent to amino acid 205 of t-PA) in Kringle 2, and the glycosylation consensus sequence within the Serine Protease domain

Where a chain is given by its changes, count along the chain named.

One assay concerns the target plasminogen.
For the molecule B1, the plasminogenolytic activity (PAU/mg) (PAU/mg (single chain)) came to 50.

On to B2, for which the plasminogenolytic activity (PAU/mg) (PAU/mg (single chain)) was 59.

B3: the plasminogenolytic activity (PAU/mg) (PAU/mg (single chain)) worked out at 56.

In turn, B4 gave a plasminogenolytic activity (PAU/mg) (PAU/mg (single chain)) of 87.

Regarding B5, the plasminogenolytic activity (PAU/mg) (PAU/mg (single chain)) is 189.

The next assay has as its target Lysine (Lys)-Plasminogen.
With B1, the ratio of the rates of Lys- to Glu-plasminogen activation in the presence of fibrin stimulator (Lys/Glu) (Lys/Glu (ratio of rates), single chain) stood at 2.

B2: the ratio of the rates of Lys- to Glu-plasminogen activation in the presence of fibrin stimulator (Lys/Glu) (Lys/Glu (ratio of rates), single chain) stood at 2.

As to B3, the ratio of the rates of Lys- to Glu-plasminogen activation in the presence of fibrin stimulator (Lys/Glu) (Lys/Glu (ratio of rates), single chain) is 1.4.

As to B4, the ratio of the rates of Lys- to Glu-plasminogen activation in the presence of fibrin stimulator (Lys/Glu) (Lys/Glu (ratio of rates), single chain) is 1.

In the case of B5, the ratio of the rates of Lys- to Glu-plasminogen activation in the presence of fibrin stimulator (Lys/Glu) (Lys/Glu (ratio of rates), single chain) was 3.3.
